Laboratory results published in paper PMC11446282.
Read-outs that look alike come from different tables or passages of the source.

T1: B55α (Homo sapiens, UniProt P63151)
T1 construct: His; made in house; host or cells: HEK293 cells
T1 sequence (P63151 1-447): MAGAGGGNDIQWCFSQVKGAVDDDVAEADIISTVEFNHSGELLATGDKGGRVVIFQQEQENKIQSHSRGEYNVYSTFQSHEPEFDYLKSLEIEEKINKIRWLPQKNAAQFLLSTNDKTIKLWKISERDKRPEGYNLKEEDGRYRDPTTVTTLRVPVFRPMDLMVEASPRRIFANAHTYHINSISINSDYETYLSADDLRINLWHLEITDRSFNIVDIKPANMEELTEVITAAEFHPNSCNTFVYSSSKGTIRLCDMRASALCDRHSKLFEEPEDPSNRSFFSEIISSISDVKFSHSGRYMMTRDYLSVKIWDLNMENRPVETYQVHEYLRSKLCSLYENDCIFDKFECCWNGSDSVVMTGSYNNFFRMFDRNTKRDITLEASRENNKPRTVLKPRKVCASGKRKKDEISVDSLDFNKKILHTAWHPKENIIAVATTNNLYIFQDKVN


Tests used:
B55α = biological target: T1, B55α; assay: Surface plasmon resonance with captured Twin-Strep B55α; assay type: binding; conditions: same SPR approach as for B55i; fig. S15
PP2A-B55 isoforms = assay type: binding, human; conditions: MS, n = 4; for log2_ratio WT_M: YFP-PME1 wild-type versus mutant IP; for log2_ratio WT_C: wild-type versus control IP
Experimental: Standard cloning techniques were used throughout. Point mutations were introduced by whole plasmid polymerase chain reaction (PCR). All constructs were fully sequenced. Synthetic DNA was purchased from GeneArt, Life Technologies and cloned into pcDNA5/FRT/TO (Invitrogen) expression vector containing YFP, resulting in the indicated YFP fusion proteins. These constructs were transiently transfected into HeLa cells 24 hours before harvesting cells. Cells were lysed in lysis buffer [50 mM tris-HCl (pH 7.5), 50 mM NaCl, 1 mM EDTA, 1 mM […], and 0.1% NP-40]. Complexes were immunoprecipitated at 4°C in lysis buffer with green fluorescent protein (GFP)–Trap (ChromoTek) and washed in lysis buffer. Precipitated protein complexes were washed three times in lysis buffer, eluted in 2× SDS sample buffer, and subjected to Western blotting or MS as indicated.
Pull-downs were analyzed on a Q-Exactive Plus quadrupole or Fusion Orbitrap Lumos mass spectrometer (Thermo Fisher Scientific) equipped with Easy-nLC 1000 or […] (Thermo Fisher Scientific) and nanospray source (Thermo Fisher Scientific). Peptides were resuspended in 5% methanol/1% formic acid and loaded onto a trap column [1 cm in length, 100 μm in inner diameter, ReproSil, C18 AQ 5-μm 120-Å pore (Dr. Maisch, Ammerbuch, Germany)] vented to waste via a micro-tee and eluted across a fritless analytical resolving column (35 cm in length, 100 μm in inner diameter, ReproSil, C18 AQ 3-μm 120-Å pore) pulled in-house (Sutter P-2000, Sutter Instruments, San Francisco, CA) with a 45-min gradient of 5 to 30% liquid chromatography–MS (LC-MS) buffer B (LC-MS buffer A: 0.0625% formic acid and 3% acetonitrile (ACN); LC-MS buffer B: 0.0625% formic acid, 95% ACN Q-Exactive Plus quadrupole or 0.0625% formic acid and 80% ACN Fusion Orbitrap Lumos mass).
Static modifications included carbamidomethylcysteine, and variable modifications included oxidized methionine and STY phosphorylation. Searches were filtered using orthogonal measures including mass measurement accuracy (±3 parts per million), Xcorr for charges from +2 to +4, and dCn targeting a <1% false discovery rate at the peptide level. Quantification of LC-MS/MS spectra was performed using MassChroQ ([57]) and the iBAQ method ([58]). All data were analyzed using R 4.3.0. Missing values were imputed from a normal distribution. To be included in further analysis, proteins had to be identified with more than 1 total peptide and quantified in two or more replicates of each sample. In each dataset, the abundance of the protein of interest was normalized to be equal across all samples. Statistical analyses were done using a two-tailed Student’s t test.

[1] = prey 2ABA_HUMAN (PPP2R2A, B55 alpha)
[2] = prey 2ABB_HUMAN (PPP2R2B, B55 beta)
[3] = prey 2ABD_HUMAN (PPP2R2D, B55 delta)
[4] = prey 2ABG_HUMAN (PPP2R2C, B55 gamma)

| binding to B55α, affinity range (B55α) | log2_ratio WT_M (PP2A-B55 isoforms; prey 2AAA_HUMAN (PPP2R1A)) | log2_ratio WT_C (PP2A-B55 isoforms; prey 2AAA_HUMAN (PPP2R1A)) | log2_ratio WT_M (PP2A-B55 isoforms; prey 2AAB_HUMAN (PPP2R1B)) | log2_ratio WT_C (PP2A-B55 isoforms; prey 2AAB_HUMAN (PPP2R1B)) | log2_ratio WT_M (PP2A-B55 isoforms; [1]) | log2_ratio WT_C (PP2A-B55 isoforms; [1]) | log2_ratio WT_M (PP2A-B55 isoforms; [2]) | log2_ratio WT_C (PP2A-B55 isoforms; [2]) | log2_ratio WT_M (PP2A-B55 isoforms; [3]) | log2_ratio WT_C (PP2A-B55 isoforms; [3]) | log2_ratio WT_M (PP2A-B55 isoforms; [4]) | log2_ratio WT_C (PP2A-B55 isoforms; [4]) | log2_ratio WT_M (PP2A-B55 isoforms; prey PP2AA_HUMAN (PPP2CA)) | log2_ratio WT_C (PP2A-B55 isoforms; prey PP2AA_HUMAN (PPP2CA)) | log2_ratio WT_M (PP2A-B55 isoforms; prey PP2AB_HUMAN (PPP2CB)) | log2_ratio WT_C (PP2A-B55 isoforms; prey PP2AB_HUMAN (PPP2CB)) | Molecule |
| --- | --- | --- | --- | --- | --- | --- | --- | --- | --- | --- | --- | --- | --- | --- | --- | --- | --- |
| low micromolar |  |  |  |  |  |  |  |  |  |  |  |  |  |  |  |  | PME1: full-length PME1 protein expressed in BL21(DE3) (protein) MSALEKSMHLGRLPSRPPLPGSGGSQSGAKMRMGPGRKRDFSPVPWSQYFESMEDVEVENETGKDTFRVYKSGSEGPVLLLLHGGGHSALSWAVFTAAIISRVQCRIVALDLRSHGETKVKNPEDLSAETMAKDVGNVVEAMYGDLPPPIMLIGHSMGGAIAVHTASSNLVPSLLGLCMIDVVEGTAMDALNSMQNFLRGRPKTFKSLENAIEWSVKSGQIRNLESARVSMVGQVKQCEGITSPEGSKSIVEGIIEEEEEDEEGSESISKRKKEDDMETKKDHPYTWRIELAKTEKYWDGWFRGLSNLFLSCPIPKLLLLAGVDRLDKDLTIGQMQGKFQMQVLPQCGHAVHEDAPDKVAEAVATFLIRHRFAEPIGGFQCVFPGC |
| low micromolar |  |  |  |  |  |  |  |  |  |  |  |  |  |  |  |  | Arpp19: full-length Arpp19 protein (S62E in the SPR method) (protein, UniProt P56211 1-112, looked up, variant S62E, full-length) MSAEVPEAASAEEQKEMEDKVTSPEKAEEAKLKARYPHLGQKPGGSDFLRKRLQKGQKYFDEGDYNMAKAKMKNKQLPTAAPDKTEVTGDHIPTPQDLPQRKPSLVASKLAG |
|  | 1.05 | 8.03 | 1.40 | 6.19 | 8.62 | 8.40 | 4.68 | 4.02 | 5.74 | 6.24 | 6.08 | 5.83 | 0.66 | 9.04 | 0.69 | 8.00 | PME1 wt (protein, UniProt Q9Y570 2-386, looked up) Protein phosphatase …: SALEKSMHLGRLPSRPPLPGSGGSQSGAKMRMGPGRKRDFSPVPWSQYFESMEDVEVENETGKDTFRVYKSGSEGPVLLLLHGGGHSALSWAVFTAAIISRVQCRIVALDLRSHGETKVKNPEDLSAETMAKDVGNVVEAMYGDLPPPIMLIGHSMGGAIAVHTASSNLVPSLLGLCMIDVVEGTAMDALNSMQNFLRGRPKTFKSLENAIEWSVKSGQIRNLESARVSMVGQVKQCEGITSPEGSKSIVEGIIEEEEEDEEGSESISKRKKEDDMETKKDHPYTWRIELAKTEKYWDGWFRGLSNLFLSCPIPKLLLLAGVDRLDKDLTIGQMQGKFQMQVLPQCGHAVHEDAPDKVAEAVATFLIRHRFAEPIGGFQCVFPGC |
